According to patent US20260242735A1 (UNIVERSIT T BASEL, published 2026):

Experiments:
[1] = biological target: human CD33 C212A (human, UniProt P20138 18-364); assay: alanine scan, flow cytometry, HEK293-T;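 note: antibody binding to each alanine-substituted CD33 mutant expressed transiently in HEK293-T, read as fluorescence minus background, mean of duplicates, relative to wild-type CD33 set as 100%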
[2] = biological target: human CD33 N76A (human, UniProt P20138 18-364); assay: alanine scan, flow cytometry, HEK293-T;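 note: antibody binding to each alanine-substituted CD33 mutant expressed transiently in HEK293-T, read as fluorescence minus background, mean of duplicates, relative to wild-type CD33 set as 100%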
[3] = biological target: human CD33 K77A (human, UniProt P20138 18-364); assay: alanine scan, flow cytometry, HEK293-T;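 note: antibody binding to each alanine-substituted CD33 mutant expressed transiently in HEK293-T, read as fluorescence minus background, mean of duplicates, relative to wild-type CD33 set as 100%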
[4] = biological target: human CD33 N99A (human, UniProt P20138 18-364); assay: alanine scan, flow cytometry, HEK293-T;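 note: antibody binding to each alanine-substituted CD33 mutant expressed transiently in HEK293-T, read as fluorescence minus background, mean of duplicates, relative to wild-type CD33 set as 100%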
[5] = biological target: human CD33 P96A (human, UniProt P20138 18-364); assay: alanine scan, flow cytometry, HEK293-T
[6] = biological target: human CD33 E84A (human, UniProt P20138 18-364); assay: alanine scan, flow cytometry, HEK293-T
[7] = biological target: human CD33 A65S (human, UniProt P20138 18-364); assay: alanine scan, flow cytometry, HEK293-T
[8] = biological target: human CD33 R119A (human, UniProt P20138 18-364); assay: alanine scan, flow cytometry, HEK293-T
[9] = biological target: human CD33 V73A (human, UniProt P20138 18-364); assay: alanine scan, flow cytometry, HEK293-T
[10] = biological target: human CD33 G114A (human, UniProt P20138 18-364); assay: alanine scan, flow cytometry, HEK293-T
[11] = biological target: human CD33 G88A (human, UniProt P20138 18-364); assay: alanine scan, flow cytometry, HEK293-T
[12] = biological target: human CD33 G64A (human, UniProt P20138 18-364); assay: alanine scan, flow cytometry, HEK293-T
[13] = biological target: human CD33 A74S (human, UniProt P20138 18-364); assay: alanine scan, flow cytometry, HEK293-T
[14] = biological target: human CD33 W60A (human, UniProt P20138 18-364); assay: alanine scan, flow cytometry, HEK293-T
[15] = biological target: human CD33 E81A (human, UniProt P20138 18-364); assay: alanine scan, flow cytometry, HEK293-T
[16] = biological target: human CD33 N53A (human, UniProt P20138 18-364); assay: alanine scan, flow cytometry, HEK293-T
[17] = biological target: human CD33 P48A (human, UniProt P20138 18-364); assay: alanine scan, flow cytometry, HEK293-T
[18] = biological target: T1, human CD33 V138A (human, UniProt P20138 18-364); assay: alanine scan, flow cytometry, HEK293-T
T1 construct: alanine scan clone, transfected HEK293-T

[19] = biological target: T2, human CD33 K126A (human, UniProt P20138 18-364); assay: alanine scan, flow cytometry, HEK293-T
T2 construct: alanine scan clone, transfected HEK293-T

[20] = biological target: T3, human CD33 T162A (human, UniProt P20138 18-364); assay: alanine scan, flow cytometry, HEK293-T
T3 construct: alanine scan clone, transfected HEK293-T

[21] = biological target: T4, human CD33 I149A (human, UniProt P20138 18-364); assay: alanine scan, flow cytometry, HEK293-T
T4 construct: alanine scan clone, transfected HEK293-T

[22] = biological target: T5, human CD33 P155A (human, UniProt P20138 18-364); assay: alanine scan, flow cytometry, HEK293-T
T5 construct: alanine scan clone, transfected HEK293-T

[23] = biological target: T6, human CD33 R122A (human, UniProt P20138 18-364); assay: alanine scan, flow cytometry, HEK293-T
T6 construct: alanine scan clone, transfected HEK293-T

[24] = biological target: T7, human CD33 H157A (human, UniProt P20138 18-364); assay: alanine scan, flow cytometry, HEK293-T
T7 construct: alanine scan clone, transfected HEK293-T

[25] = biological target: T8, human CD33 R190A (human, UniProt P20138 18-364); assay: alanine scan, flow cytometry, HEK293-T
T8 construct: alanine scan clone, transfected HEK293-T

[26] = biological target: T9, human CD33 N160A (human, UniProt P20138 18-364); assay: alanine scan, flow cytometry, HEK293-T
T9 construct: alanine scan clone, transfected HEK293-T

[27] = biological target: T10, human CD33 H143A (human, UniProt P20138 18-364); assay: alanine scan, flow cytometry, HEK293-T
T10 construct: alanine scan clone, transfected HEK293-T

[28] = biological target: T11, human CD33 S178A (human, UniProt P20138 18-364); assay: alanine scan, flow cytometry, HEK293-T
T11 construct: alanine scan clone, transfected HEK293-T

[29] = biological target: T12, human CD33 S128A (human, UniProt P20138 18-364); assay: alanine scan, flow cytometry, HEK293-T
T12 construct: alanine scan clone, transfected HEK293-T

[30] = biological target: human CD33 Y127H (human, UniProt P20138 18-364); assay: flow cytometry, transfected cells, IgG;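 note: CD33 point mutants transiently expressed in HEK293-T cells, antibody binding read by fluorescence, background subtracted and normalized to wild-type CD33 as 100%, duplicates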
Protocol: (§1) An alanine scan on human CD33 was performed to the determine the residues on CD33 that are involved in binding to the antibodies investigated. […] Briefly, a mutation library of CD33 was created by high-throughput, site-directed mutagenesis. Each residue was individually mutated to alanine, with alanine codons mutated to serine. The mutant library was arrayed in 384-well microplates and transiently transfected into HEK293-T. Following transfection, cells were incubated with the indicated antibodies (IgG or Fab) at concentrations pre-determined using an independent immunofluorescence titration curve on wild type CD33. […] Binding of each antibody to each mutant clone was determined in duplicates. For each point, background fluorescence was subtracted from the raw data, which were then normalized to antibody reactivity with wild type CD33.
(§2) Antibodies were screened for binding to the human CD33 variants in IgG format. […] For each mutation, background fluorescence was subtracted from the raw data, which were then normalized to antibody reactivity with wild-type CD33.

[31] = biological target: human CD33 S131W (human, UniProt P20138 18-364); assay: flow cytometry, transfected cells, IgG;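 note: CD33 point mutants transiently expressed in HEK293-T cells, antibody binding read by fluorescence, background subtracted and normalized to wild-type CD33 as 100%, duplicates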
Protocol: as §1, §2

[32] = biological target: human CD33 R122I (human, UniProt P20138 18-364); assay: flow cytometry, transfected cells, IgG;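 note: CD33 point mutants transiently expressed in HEK293-T cells, antibody binding read by fluorescence, background subtracted and normalized to wild-type CD33 as 100%, duplicates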
Protocol: as §1, §2

[33] = biological target: human CD33 P132Y (human, UniProt P20138 18-364); assay: flow cytometry, transfected cells, IgG;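 note: CD33 point mutants transiently expressed in HEK293-T cells, antibody binding read by fluorescence, background subtracted and normalized to wild-type CD33 as 100%, duplicates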
Protocol: as §1, §2

[34] = biological target: human CD33 P132Q (human, UniProt P20138 18-364); assay: flow cytometry, transfected cells, IgG
Protocol: as §1, §2

[35] = biological target: human CD33 D51Y (human, UniProt P20138 18-364); assay: flow cytometry, transfected cells, IgG
Protocol: as §1, §2

[36] = biological target: human CD33 S131K (human, UniProt P20138 18-364); assay: flow cytometry, transfected cells, IgG
Chain of human CD33 S131K (P20138 18-364 S131K limits assumed): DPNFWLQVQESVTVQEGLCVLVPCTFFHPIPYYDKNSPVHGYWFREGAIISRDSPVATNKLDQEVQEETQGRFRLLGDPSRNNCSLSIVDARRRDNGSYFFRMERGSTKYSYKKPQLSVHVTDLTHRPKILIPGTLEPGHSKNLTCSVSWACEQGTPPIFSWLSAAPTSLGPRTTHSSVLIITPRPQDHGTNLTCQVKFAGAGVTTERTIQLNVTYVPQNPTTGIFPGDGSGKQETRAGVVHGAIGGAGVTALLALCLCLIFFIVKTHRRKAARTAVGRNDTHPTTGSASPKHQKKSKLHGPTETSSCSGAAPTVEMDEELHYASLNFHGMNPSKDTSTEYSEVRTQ
Protocol: as §1, §2

Chain of human CD33 D51Y (P20138 18-364 D51Y limits assumed): as the sequence (P20138 18-364 S131K limits assumed) above, with D34Y, K114S counted along it
Chain of human CD33 C212A (P20138 18-364 C212A limits assumed): as the sequence (P20138 18-364 S131K limits assumed) above, with K114S, C195A counted along it
Chain of human CD33 G64A (P20138 18-364 G64A limits assumed): as the sequence (P20138 18-364 S131K limits assumed) above, with G47A, K114S counted along it
T5 sequence (P20138 18-364 P155A limits assumed): as the sequence (P20138 18-364 S131K limits assumed) above, with K114S, P138A counted along it
T7 sequence (P20138 18-364 H157A limits assumed): as the sequence (P20138 18-364 S131K limits assumed) above, with K114S, H140A counted along it
T3 sequence (P20138 18-364 T162A limits assumed): as the sequence (P20138 18-364 S131K limits assumed) above, with K114S, T145A counted along it
Chain of human CD33 S131W (P20138 18-364 S131W limits assumed): as the sequence (P20138 18-364 S131K limits assumed) above, with K114W counted along it
Chain of human CD33 G114A (P20138 18-364 G114A limits assumed): as the sequence (P20138 18-364 S131K limits assumed) above, with G97A, K114S counted along it
Chain of human CD33 G88A (P20138 18-364 G88A limits assumed): as the sequence (P20138 18-364 S131K limits assumed) above, with G71A, K114S counted along it
Chain of human CD33 Y127H (P20138 18-364 Y127H limits assumed): as the sequence (P20138 18-364 S131K limits assumed) above, with Y110H, K114S counted along it
Chain of human CD33 P48A (P20138 18-364 P48A limits assumed): as the sequence (P20138 18-364 S131K limits assumed) above, with P31A, K114S counted along it
T12 sequence (P20138 18-364 S128A limits assumed): as the sequence (P20138 18-364 S131K limits assumed) above, with S111A, K114S counted along it
Chain of human CD33 K77A (P20138 18-364 K77A limits assumed): as the sequence (P20138 18-364 S131K limits assumed) above, with K60A, K114S counted along it
Chain of human CD33 N76A (P20138 18-364 N76A limits assumed): as the sequence (P20138 18-364 S131K limits assumed) above, with N59A, K114S counted along it
Chain of human CD33 P132Y (P20138 18-364 P132Y limits assumed): as the sequence (P20138 18-364 S131K limits assumed) above, with K114S, P115Y counted along it
T2 sequence (P20138 18-364 K126A limits assumed): as the sequence (P20138 18-364 S131K limits assumed) above, with K109A, K114S counted along it
Chain of human CD33 A65S (P20138 18-364 A65S limits assumed): as the sequence (P20138 18-364 S131K limits assumed) above, with A48S, K114S counted along it
T1 sequence (P20138 18-364 V138A limits assumed): as the sequence (P20138 18-364 S131K limits assumed) above, with K114S, V121A counted along it
T10 sequence (P20138 18-364 H143A limits assumed): as the sequence (P20138 18-364 S131K limits assumed) above, with K114S, H126A counted along it
Chain of human CD33 E84A (P20138 18-364 E84A limits assumed): as the sequence (P20138 18-364 S131K limits assumed) above, with E67A, K114S counted along it
Chain of human CD33 A74S (P20138 18-364 A74S limits assumed): as the sequence (P20138 18-364 S131K limits assumed) above, with A57S, K114S counted along it
Chain of human CD33 P96A (P20138 18-364 P96A limits assumed): as the sequence (P20138 18-364 S131K limits assumed) above, with P79A, K114S counted along it
Chain of human CD33 R122I (P20138 18-364 R122I limits assumed): as the sequence (P20138 18-364 S131K limits assumed) above, with R105I, K114S counted along it
T11 sequence (P20138 18-364 S178A limits assumed): as the sequence (P20138 18-364 S131K limits assumed) above, with K114S, S161A counted along it
Chain of human CD33 N99A (P20138 18-364 N99A limits assumed): as the sequence (P20138 18-364 S131K limits assumed) above, with N82A, K114S counted along it
Chain of human CD33 W60A (P20138 18-364 W60A limits assumed): as the sequence (P20138 18-364 S131K limits assumed) above, with W43A, K114S counted along it
T9 sequence (P20138 18-364 N160A limits assumed): as the sequence (P20138 18-364 S131K limits assumed) above, with K114S, N143A counted along it
Chain of human CD33 E81A (P20138 18-364 E81A limits assumed): as the sequence (P20138 18-364 S131K limits assumed) above, with E64A, K114S counted along it
T4 sequence (P20138 18-364 I149A limits assumed): as the sequence (P20138 18-364 S131K limits assumed) above, with K114S, I132A counted along it
T6 sequence (P20138 18-364 R122A limits assumed): as the sequence (P20138 18-364 S131K limits assumed) above, with R105A, K114S counted along it
Chain of human CD33 N53A (P20138 18-364 N53A limits assumed): as the sequence (P20138 18-364 S131K limits assumed) above, with N36A, K114S counted along it
Chain of human CD33 P132Q (P20138 18-364 P132Q limits assumed): as the sequence (P20138 18-364 S131K limits assumed) above, with K114S, P115Q counted along it
Chain of human CD33 R119A (P20138 18-364 R119A limits assumed): as the sequence (P20138 18-364 S131K limits assumed) above, with R102A, K114S counted along it
T8 sequence (P20138 18-364 R190A limits assumed): as the sequence (P20138 18-364 S131K limits assumed) above, with K114S, R173A counted along it
Chain of human CD33 V73A (P20138 18-364 V73A limits assumed): as the sequence (P20138 18-364 S131K limits assumed) above, with V56A, K114S counted along it

B1: Refmab #3 (antibody, V domains shown)
VH: QVQLVQSGAEVKKPGSSVKVSCKASGYTFTDYNMHWVRQAPGQGLEWIGYIYPYNGGTGYNQKFKSKATITADESTNTAYMELSSLRSEDTAVYYCARGRPAMDYWGQGTLVTVSS
VL: DIQMTQSPSSLSASVGDRVTITCRASESVDNYGISFMNWFQQKPGKAPKLLIYAASNQGSGVPSRFSGSGSGTDFTLTISSLQPDDFATYYCQQSKEVPWTFGQGTKVEIK
notes: In the alanine scan antibodies were used as IgG or Fab
Mean % WT Binding [1]: 57.3%

B2: Refmab #4 (antibody, V domains shown)
VH: QVQLVQSGAEVKKPGESVKVSCKASGYTFTNYGMNWVKQAPGQGLEWMGWINTYTGEPTYADKFQGRVTMTTDTSTSTAYMEIRNLGGDDTAVYYCARWSWSDGYYVYFDYWGQGTSVTVSS
VL: DIVMTQSPDSLTVSLGERTTINCKSSQSVLDSSTNKNSLAWYQQKPGQPPKLLLSWASTRESGIPDRFSGSGSGTDFTLTIDSPQPEDSATYYCQQSAHFPITFGQGTRLEIK
notes: as for B1
Mean % WT Binding [1]: 11%

B3: Refmab #5 (antibody, V domains shown)
VH: QVQLVQSGAEVKKPGASVKVSCKASGYTFTNYDINWVRQAPGQGLEWIGWIYPGDGSTKYNEKFKAKATLTADTSTSTAYMELRSLRSDDTAVYYCASGYEDAMDYWGQGTTVTVSS
VL: DIQMTQSPSSLSASVGDRVTINCKASQDINSYLSWFQQKPGKAPKTLIYRANRLVDGVPSRFSGSGSGQDYTLTISSLQPEDFATYYCLQYDEFPLTFGGGTKVEIK
notes: Full-length format is human IgG1 Fc silent (PG-LALA); also made as Fab; The alanine scan used IgG or Fab
Mean % WT Binding [2]: 124 % WT binding
Mean % WT Binding [3]: 124 % WT binding
Mean % WT Binding [4]: 88.4 % WT binding
Mean % WT Binding [5]: 114 % WT binding
Mean % WT Binding [6]: 141 % WT binding
Mean % WT Binding [7]: 175 % WT binding
Mean % WT Binding [8]: 167 % WT binding
Mean % WT Binding [9]: 112 % WT binding
Mean % WT Binding [10]: 79 % WT binding
Mean % WT Binding [11]: 118 % WT binding
Mean % WT Binding [12]: 136 % WT binding
Mean % WT Binding [13]: 99 % WT binding
Mean % WT Binding [14]: 35.9 % WT binding
Mean % WT Binding [15]: 140 % WT binding
Mean % WT Binding [16]: 97.6 % WT binding
Mean % WT Binding [17]: 92.8 % WT binding

B4: Refmab #6 (antibody, V domains shown)
VH: QVQLQQPGAEVVKPGASVKMSCKASGYTFTSYYIHWIKQTPGQGLEWVGVIYPGNDDISYNQKFQGKATLTADKSSTTAYMQLSSLTSEDSAVYYCAREVRLRYFDVWGQGTTVTVSS
VL: EIVLTQSPGSLAVSPGERVTMSCKSSQSVFFSSSQKNYLAWYQQIPGQSPRLLIYWASTRESGVPDRFTGSGSGTDFTLTISSVQPEDLAIYYCHQYLSSRTFGQGTKLEIK
notes: as for B3
Mean % WT Binding [2]: 86.8 % WT binding
Mean % WT Binding [3]: 79.9 % WT binding
Mean % WT Binding [4]: 92 % WT binding
Mean % WT Binding [5]: 92.3 % WT binding
Mean % WT Binding [6]: 97.4 % WT binding
Mean % WT Binding [7]: 92.3 % WT binding
Mean % WT Binding [8]: 123 % WT binding
Mean % WT Binding [9]: 77.7 % WT binding
Mean % WT Binding [10]: 106 % WT binding
Mean % WT Binding [11]: 105 % WT binding
Mean % WT Binding [12]: 92.9 % WT binding
Mean % WT Binding [13]: 94.9 % WT binding
Mean % WT Binding [14]: 2.1 % WT binding
Mean % WT Binding [15]: 88.1 % WT binding
Mean % WT Binding [16]: 96.8 % WT binding
Mean % WT Binding [17]: 104 % WT binding

B5: Refmab #5 (antibody, V domains shown)
VH: B3 VH
VL: B3 VL
notes: The alanine scan used IgG or Fab
Mean % WT Binding [18]: 101 % WT binding
Mean % WT Binding [19]: 134 % WT binding
Mean % WT Binding [20]: 92.4 % WT binding
Mean % WT Binding [21]: 112 % WT binding
Mean % WT Binding [22]: 140 % WT binding
Mean % WT Binding [23]: 85.7 % WT binding
Mean % WT Binding [24]: 102 % WT binding
Mean % WT Binding [25]: 112 % WT binding
Mean % WT Binding [26]: 110 % WT binding
Mean % WT Binding [27]: 128 % WT binding
Mean % WT Binding [28]: 117 % WT binding
Mean % WT Binding [29]: 283 % WT binding

B6: Refmab #6 (antibody, V domains shown)
VH: B4 VH
VL: B4 VL
notes: as for B5
Mean % WT Binding [18]: 65.4 % WT binding
Mean % WT Binding [19]: 134 % WT binding
Mean % WT Binding [20]: 87.2 % WT binding
Mean % WT Binding [21]: 100 % WT binding
Mean % WT Binding [22]: 104 % WT binding
Mean % WT Binding [23]: 106 % WT binding
Mean % WT Binding [24]: 96.3 % WT binding
Mean % WT Binding [25]: 112 % WT binding
Mean % WT Binding [26]: 106 % WT binding
Mean % WT Binding [27]: 97.5 % WT binding
Mean % WT Binding [28]: 102 % WT binding
Mean % WT Binding [29]: 127 % WT binding

B7: Refmab #5 (antibody, human IgG1, V domains shown)
VH: B3 VH
VL: B3 VL
Mean % WT Binding [30]: 97.2%
Mean % WT Binding [31]: 94.5%
Mean % WT Binding [32]: 86.1%
Mean % WT Binding [33]: 84.3%
Mean % WT Binding [34]: 88.4%
Mean % WT Binding [35]: 57.1%
Mean % WT Binding [36]: 96.4%

B8: Refmab #6 (antibody, human IgG1, V domains shown)
VH: B4 VH
VL: B4 VL
Mean % WT Binding [30]: 112%
Mean % WT Binding [31]: 1.1%
Mean % WT Binding [32]: 107%
Mean % WT Binding [33]: 1.1%
Mean % WT Binding [34]: 5.4%
Mean % WT Binding [35]: 71.3%
Mean % WT Binding [36]: 2.5%
